In the Immune Epitope Database (IEDB):

Key:
Experiment in all cases: IEDB peptide-MHC binding, purified MHC/competitive/radioactivity; filed as Kd, often an IC50 or EC50 that approximates it; ≥ and ≤ were set here for values at or beyond the usual limits of such assays
Details in all cases: source organism: Lake Victoria marburgvirus - Angola2005
HLA-B*07:02 = target: HLA-B*07:02
HLA-B*08:01 = target: HLA-B*08:01
HLA-A*26:01 = target: HLA-A*26:01
HLA-A*68:02 = target: HLA-A*68:02
HLA-B*40:01 = target: HLA-B*40:01
HLA-B*44:02 = target: HLA-B*44:02
HLA-A*02:03 = target: HLA-A*02:03
HLA-A*02:06 = target: HLA-A*02:06
HLA-A*24:02 = target: HLA-A*24:02
HLA-A*32:01 = target: HLA-A*32:01
HLA-A*30:02 = target: HLA-A*30:02
HLA-B*15:01 = target: HLA-B*15:01
HLA-A*23:01 = target: HLA-A*23:01
HLA-A*68:01 = target: HLA-A*68:01
HLA-A*30:01 = target: HLA-A*30:01

APFARVLNL
Kd (HLA-B*07:02): 0.21 nM
Kd (HLA-B*08:01): 67 nM

EVASFKQAL
Kd (HLA-B*07:02): 250 nM
Kd (HLA-A*26:01): 86 nM
Kd (HLA-A*68:02): 2.7 nM

GEYAPFARV
Kd (HLA-B*40:01): 107 nM
Kd (HLA-B*44:02): 214 nM

GLYPQLSAI
Kd (HLA-A*02:03): 1.4 nM
Kd (HLA-A*02:06): 6.9 nM

HYSPLILAL
Kd (HLA-A*24:02): 64 nM

KVKNEVASF
Kd (HLA-A*32:01): 2.9 nM
Kd (HLA-A*30:02): 158 nM
Kd (HLA-B*15:01): 5.6 nM

LIVKTVLEF
Kd (HLA-A*23:01): 109 nM
Kd (HLA-B*15:01): 0.8 nM

TVLEFILQK
Kd (HLA-A*68:01): 2.2 nM
Kd (HLA-A*30:01): 365 nM
